Holding throughout (assay type): biochemical, human
Substrate in data set [1]: Cc1cc(=O)oc2cc(NC(=O)[C@H](Cc3ccc(O)cc3)NC(=O)[C@@H](NC(=O)[C@H](CC(C)C)NC(=O)[C@H](CC(C)C)NC(=O)CCC(=O)O)C(C)C)ccc12
Nature of the data set: Purified proteasome activity assay with fluorogenic substrates, SDS-activated i20S. To be noted: other: Michaelis-Menten plot, commercial substrate; pH 8.0. The protocol:
(§1) Non-prime-side substrate specificity profiling was performed with a complete, diverse library of 160,000 fluorogenic substrates containing the general structure acetyl-P4-P3-P2-P1-(7-amino-4-carbamoylmethylcourmarin, ACC) ([Harris et al., 2000]). For each sub-library, 10 nM human i20S or c20S underwent SDS pre-activation for 1 hr at room temperature in assay buffer (20 mM Tris, pH 8.0, 0.5 mM EDTA) containing 0.03% SDS. […] Activity assays were carried out over 1 hr following two-fold sample dilution in the same 0.03% SDS-containing buffer that also contained a 250 μM final concentration of PS-SCL substrate pool. Activity was recorded in black 96-well round bottom plates (Costar, COrning, NY) using a BioTek Synergy H4 Hybrid Multi-Mode Microplate Reader set to λex = 380 nm and λem = 460 nm (gain = 63). Initial velocity in relative fluorescence units per second (RFU/s) was calculated using a linear fit of the progress curves with Gen5 software v.2.03.
(§2) Activity assays with individual fluorogenic substrates were carried out as described above for the PS-SCL assays using final concentrations of 5 nM SDS-activated i20S or c20S and 10 μM substrate except where noted below. The commercial substrates Suc-LLVY-AMC, Ac-WLA-AMC (Boston Biochem, S-330), and Ac-ANW-AMC (Boston Biochem, S-320) were used as supplied. To convert cleaved substrate RFU to free AMC or ACC dye concentration, calibration curves were prepared through total enzymatic hydrolysis of ACC- or AMC-containing peptides that had been quantified through amino acid analysis (Alphalyse, Inc.). Substrate selectivity of PA28α- and SDS-activated 20S proteasomes was compared following 1 hr pre-incubation at room temperature either in the presence of 0.03% SDS or with 12 molar equivalents of PA28α activator in the absence of SDS. For substrate selectivity assays with mixed, purified proteasomes, i20S and c20S underwent individual SDS pre-activation prior to assaying with 5 nM final concentration of pooled 20S. Proteasome ratio assays were performed with 10 μM EWFW-ACC, 30 μM iso-VQA-ACC, and 30 μM Suc-LLVY-AMC. All activity measurements were recorded on the BioTek plate reader described above using λex = 380 nm and λem = 460 nm (gain = 63) for ACC substrates and Suc-LLVY-AMC; 345 nm and λem = 445 nm (gain = 63) for Ac-WLA-AMC and Ac-ANW-AMC; and λex = 328 nm and λem = 393 nm (gain = 75) for the GEWHWPS IQ substrate. Michaelis-Menten calculations were performed using a non-linear fit in Prism v.6.0.

Substrate in data set [2]: NC(=O)Cc1cc(=O)oc2cc(NC(=O)[C@H](Cc3c[nH]c4ccccc34)NC(=O)[C@H](Cc3c[nH]cn3)NC(=O)[C@H](Cc3c[nH]c4ccccc34)NC(=O)[C@@H](N)CCC(=O)O)ccc12
The data set is described as above. Particulars: other: i20S, Michaelis-Menten; pH 8.0. On the procedure: as §1, §2

Substrate in data set [3]: CC(=O)N[C@@H](C)C(=O)N[C@@H](CC(N)=O)C(=O)N[C@@H](Cc1c[nH]c2ccccc12)C(=O)Nc1ccc2c(C)cc(=O)oc2c1
The data set is described as above. To be noted: other: i20S, Michaelis-Menten; pH 8.0. The protocol:
as §1, §2

Substrate in data set [4]: NC(=O)Cc1cc(=O)oc2cc(NC(=O)[C@H](Cc3c[nH]c4ccccc34)NC(=O)[C@H](Cc3ccccc3)NC(=O)[C@H](Cc3c[nH]c4ccccc34)NC(=O)[C@@H](N)CCC(=O)O)ccc12
Described as above. Particulars: other: i20S, Michaelis-Menten; pH 8.0. The protocol:
as §1, §2

Substrate in data set [5]: Cc1cc(C(=O)N[C@H](C(=O)N[C@@H](CCC(N)=O)C(=O)N[C@@H](C)C(=O)Nc2ccc3c(CC(N)=O)cc(=O)oc3c2)C(C)C)no1
Described as above. Particulars: other: i20S, Michaelis-Menten; pH 8.0. On the procedure:
as §1, §2

Substrate in data set [6]: Cc1cc(=O)oc2cc(NC(=O)[C@H](Cc3ccc(O)cc3)NC(=O)[C@@H](NC(=O)[C@H](CC(C)C)NC(=O)[C@H](CC(C)C)NC(=O)CCC(=O)O)C(C)C)ccc12
Nature of the data set: Purified proteasome activity assay with fluorogenic substrates, SDS-activated c20S. Particulars: other: Michaelis-Menten plot, commercial substrate; pH 8.0. On the procedure:
as §1, §2

Substrate in data set [7]: NC(=O)Cc1cc(=O)oc2cc(NC(=O)[C@H](Cc3c[nH]c4ccccc34)NC(=O)[C@H](Cc3c[nH]cn3)NC(=O)[C@H](Cc3c[nH]c4ccccc34)NC(=O)[C@@H](N)CCC(=O)O)ccc12
Described as above. Particulars: other: c20S, Michaelis-Menten; pH 8.0. The protocol: as §1, §2

Substrate in data set [8]: CC(=O)N[C@@H](C)C(=O)N[C@@H](CC(N)=O)C(=O)N[C@@H](Cc1c[nH]c2ccccc12)C(=O)Nc1ccc2c(C)cc(=O)oc2c1
The description is as above. To be noted: other: c20S, Michaelis-Menten; pH 8.0. On the procedure: as §1, §2

Substrate in data set [9]: NC(=O)Cc1cc(=O)oc2cc(NC(=O)[C@H](Cc3c[nH]c4ccccc34)NC(=O)[C@H](Cc3ccccc3)NC(=O)[C@H](Cc3c[nH]c4ccccc34)NC(=O)[C@@H](N)CCC(=O)O)ccc12
The description is as above. Particulars: other: c20S, Michaelis-Menten; pH 8.0. The protocol:
as §1, §2

Substrate in data set [10]: Cc1cc(C(=O)N[C@H](C(=O)N[C@@H](CCC(N)=O)C(=O)N[C@@H](C)C(=O)Nc2ccc3c(CC(N)=O)cc(=O)oc3c2)C(C)C)no1
The data set is described as above. To be noted: other: c20S, Michaelis-Menten; pH 8.0. On the procedure: as §1, §2

B1: human immunoproteasome core particle (i20S) (Homo sapiens) (protein)
chain 1: TTTLAFKFQHGVIAAVDSRASAGSYISALRVNKVIEINPYLLGTMSGCAADCQYWERLLAKECRLYYLRNGERISVSAASKLLSNMMCQYRGMGLSMGSMICGWDKKGPGLYYVDEHGTRLSGNMFSTGSGNTYAYGVMDSGYRPNLSPEEAYDLGRRAIAYATHRDSYSGGVVNMYHMKEDGWVKVESTDVSDLLHQYREANQ
chain 2: RFSPYVFNGGTILAIAGEDFAIVASDTRLSEGFSIHTRDSPKCYKLTDKTVIGCSGFHGDCLTLTKIIEARLKMYKHSNNKAMTTGAIAAMLSTILYSRRFFPYYVYNIIGGLDEEGKGAVYSFDPVGSYQRDSFKAGGSASAMLQPLLDNQVGFKNMQNVEHVPLSLDRAMRLVKDVFISAAERDVYTGDALRICIVTKEGIREETVSLRKD
notes: purchased Boston Biochem E-370
In general, Km refers to the substrate concentration at which the rate is half of its maximum. For orientation: kcat means the maximal rate divided by the concentration of active sites. In general, kcat/Km refers to the turnover number divided by the Michaelis constant. Take B1: the Michaelis-Menten constant (Km) came to 98.6 µM in data set [1]; 52 µM in data set [2]; 20 µM in data set [3]; 7.0 µM in data set [4]; 43 µM in data set [5]. Further, the catalytic constant (kcat) in data set [2] came out at 6.8 s⁻¹; in data set [3] it was 1.2 s⁻¹; in [4], 4.8 s⁻¹; in data set [5], 0.65 s⁻¹. Further, the kcat/Km in data set [2] was 130000 M⁻¹ s⁻¹; in data set [3] it was 58000 M⁻¹ s⁻¹; in data set [4] it was 690000 M⁻¹ s⁻¹; in [5] it was 15000 M⁻¹ s⁻¹.

B2: constitutive proteasome core particle (c20S) (Homo sapiens) (protein)
chain 1: TTTLAFKFRHGVIVAADSRATAGAYIASQTVKKVIEINPYLLGTMAGGAADCSFWERLLARQCRIYELRNKERISVAAASKLLANMVYQYKGMGLSMGTMICGWDKRGPGLYYVDSEGNRISGATFSVGSGSVYAYGVMDRGYSYDLEVEQAYDLARRAIYQATYRDAYSGGAVNLYHVREDGWIRVSSDNVADLHEKYSGSTP
chain 2: B1 chain 2
notes: purchased Boston Biochem E-360
B2: the Km worked out at 65.7 µM in data set [6]; 73 µM in [7]; 9.8 µM in [8]; 1.8 µM in [9]; 51 µM in data set [10]. Moreover, the kcat stood at 1.1 s⁻¹ in data set [7], 0.1 s⁻¹ in data set [8], 0.31 s⁻¹ in [9] and 2.3 s⁻¹ in data set [10]. For the same protein, the kcat/Km in [7] was found to be 15000 M⁻¹ s⁻¹; in [8], 10000 M⁻¹ s⁻¹; in data set [9], 170000 M⁻¹ s⁻¹; in [10], 45000 M⁻¹ s⁻¹.

The record behind these values is PMC5705213, “Immunoproteasome functions explained by divergence in cleavage specificity and regulation” (eLife, 2017).
